From paper PMC8392543

B1: EsOgl (Exiguobacterium artemiae 255-15; A109P/E176P/K441P/S130P) (protein)
chain: MERKWWHDSVVYQIYPRSFNDSNGDGIGDLVGIIEKLDYLKELGIDVIWLSPVYDSPNDDNGYDIRDYEAIMSEFGTMADFDRLLDQAHERGIKIVMDLVINHSSDEHPWFAESRKSKDNPYRDYYIWRPANEDGTLPNNWGSIFSGPAWELDEATNEYYLHLFSKKQPDLNWENPKLRQEVYQMITRWLDRGIDGFRMDVINLISKTPGLPDATVPPGALYGDGGQHYINGPRIHEFLKEMNDASFGNYDVLTVGEMPGATTDDAILYTDPERKEVNMVFTFEHMDLDSGPGGKWDVKPFDLQKLKENFTKWQVALHEKGWNSLYWNNHDQPRVVSRFGNDTTYRVESAKMLATLLHLLKGTPYIYQGEEIGMTNVAFESIEDYEDIEIRNMWKERTEQGASPAELLRAVHVKGRDNARTPIQWDATEHAGFTTGTPWLPVNPNYPTINVEQALEDPDSIFYYYKQLIALRHQHDVIVYGEYALILEEETDIYAYTRTYENETWYIYCSFSQEEVTVPLSHDTSDPVIGNYSESPAGSKEELVLRPYEAIVYRTTR
B2: EsOgl (Exiguobacterium artemiae 255-15; A109P/E176P/S130P) (protein)
chain: MERKWWHDSVVYQIYPRSFNDSNGDGIGDLVGIIEKLDYLKELGIDVIWLSPVYDSPNDDNGYDIRDYEAIMSEFGTMADFDRLLDQAHERGIKIVMDLVINHSSDEHPWFAESRKSKDNPYRDYYIWRPANEDGTLPNNWGSIFSGPAWELDEATNEYYLHLFSKKQPDLNWENPKLRQEVYQMITRWLDRGIDGFRMDVINLISKTPGLPDATVPPGALYGDGGQHYINGPRIHEFLKEMNDASFGNYDVLTVGEMPGATTDDAILYTDPERKEVNMVFTFEHMDLDSGPGGKWDVKPFDLQKLKENFTKWQVALHEKGWNSLYWNNHDQPRVVSRFGNDTTYRVESAKMLATLLHLLKGTPYIYQGEEIGMTNVAFESIEDYEDIEIRNMWKERTEQGASPAELLRAVHVKGRDNARTPIQWDATEHAGFTTGTPWLKVNPNYPTINVEQALEDPDSIFYYYKQLIALRHQHDVIVYGEYALILEEETDIYAYTRTYENETWYIYCSFSQEEVTVPLSHDTSDPVIGNYSESPAGSKEELVLRPYEAIVYRTTR
B3: EsOgl (Exiguobacterium artemiae 255-15; S130P) (protein)
chain: MERKWWHDSVVYQIYPRSFNDSNGDGIGDLVGIIEKLDYLKELGIDVIWLSPVYDSPNDDNGYDIRDYEAIMSEFGTMADFDRLLDQAHERGIKIVMDLVINHSSDEHAWFAESRKSKDNPYRDYYIWRPANEDGTLPNNWGSIFSGPAWELDEATNEYYLHLFSKKQPDLNWENEKLRQEVYQMITRWLDRGIDGFRMDVINLISKTPGLPDATVPPGALYGDGGQHYINGPRIHEFLKEMNDASFGNYDVLTVGEMPGATTDDAILYTDPERKEVNMVFTFEHMDLDSGPGGKWDVKPFDLQKLKENFTKWQVALHEKGWNSLYWNNHDQPRVVSRFGNDTTYRVESAKMLATLLHLLKGTPYIYQGEEIGMTNVAFESIEDYEDIEIRNMWKERTEQGASPAELLRAVHVKGRDNARTPIQWDATEHAGFTTGTPWLKVNPNYPTINVEQALEDPDSIFYYYKQLIALRHQHDVIVYGEYALILEEETDIYAYTRTYENETWYIYCSFSQEEVTVPLSHDTSDPVIGNYSESPAGSKEELVLRPYEAIVYRTTR
B4: EsOgl (Exiguobacterium artemiae 255-15; A109P/S130P) (protein)
chain: MERKWWHDSVVYQIYPRSFNDSNGDGIGDLVGIIEKLDYLKELGIDVIWLSPVYDSPNDDNGYDIRDYEAIMSEFGTMADFDRLLDQAHERGIKIVMDLVINHSSDEHPWFAESRKSKDNPYRDYYIWRPANEDGTLPNNWGSIFSGPAWELDEATNEYYLHLFSKKQPDLNWENEKLRQEVYQMITRWLDRGIDGFRMDVINLISKTPGLPDATVPPGALYGDGGQHYINGPRIHEFLKEMNDASFGNYDVLTVGEMPGATTDDAILYTDPERKEVNMVFTFEHMDLDSGPGGKWDVKPFDLQKLKENFTKWQVALHEKGWNSLYWNNHDQPRVVSRFGNDTTYRVESAKMLATLLHLLKGTPYIYQGEEIGMTNVAFESIEDYEDIEIRNMWKERTEQGASPAELLRAVHVKGRDNARTPIQWDATEHAGFTTGTPWLKVNPNYPTINVEQALEDPDSIFYYYKQLIALRHQHDVIVYGEYALILEEETDIYAYTRTYENETWYIYCSFSQEEVTVPLSHDTSDPVIGNYSESPAGSKEELVLRPYEAIVYRTTR
B5: EsOgl (Exiguobacterium artemiae 255-15; A109P) (protein)
chain: MERKWWHDSVVYQIYPRSFNDSNGDGIGDLVGIIEKLDYLKELGIDVIWLSPVYDSPNDDNGYDIRDYEAIMSEFGTMADFDRLLDQAHERGIKIVMDLVINHSSDEHPWFAESRKSKDNPYRDYYIWRSANEDGTLPNNWGSIFSGPAWELDEATNEYYLHLFSKKQPDLNWENEKLRQEVYQMITRWLDRGIDGFRMDVINLISKTPGLPDATVPPGALYGDGGQHYINGPRIHEFLKEMNDASFGNYDVLTVGEMPGATTDDAILYTDPERKEVNMVFTFEHMDLDSGPGGKWDVKPFDLQKLKENFTKWQVALHEKGWNSLYWNNHDQPRVVSRFGNDTTYRVESAKMLATLLHLLKGTPYIYQGEEIGMTNVAFESIEDYEDIEIRNMWKERTEQGASPAELLRAVHVKGRDNARTPIQWDATEHAGFTTGTPWLKVNPNYPTINVEQALEDPDSIFYYYKQLIALRHQHDVIVYGEYALILEEETDIYAYTRTYENETWYIYCSFSQEEVTVPLSHDTSDPVIGNYSESPAGSKEELVLRPYEAIVYRTTR
B6: EsOgl (Exiguobacterium artemiae 255-15) (protein)
chain: MERKWWHDSVVYQIYPRSFNDSNGDGIGDLVGIIEKLDYLKELGIDVIWLSPVYDSPNDDNGYDIRDYEAIMSEFGTMADFDRLLDQAHERGIKIVMDLVINHSSDEHAWFAESRKSKDNPYRDYYIWRSANEDGTLPNNWGSIFSGPAWELDEATNEYYLHLFSKKQPDLNWENEKLRQEVYQMITRWLDRGIDGFRMDVINLISKTPGLPDATVPPGALYGDGGQHYINGPRIHEFLKEMNDASFGNYDVLTVGEMPGATTDDAILYTDPERKEVNMVFTFEHMDLDSGPGGKWDVKPFDLQKLKENFTKWQVALHEKGWNSLYWNNHDQPRVVSRFGNDTTYRVESAKMLATLLHLLKGTPYIYQGEEIGMTNVAFESIEDYEDIEIRNMWKERTEQGASPAELLRAVHVKGRDNARTPIQWDATEHAGFTTGTPWLKVNPNYPTINVEQALEDPDSIFYYYKQLIALRHQHDVIVYGEYALILEEETDIYAYTRTYENETWYIYCSFSQEEVTVPLSHDTSDPVIGNYSESPAGSKEELVLRPYEAIVYRTTR
B7: EsOgl (Exiguobacterium artemiae 255-15; E176P) (protein)
chain: MERKWWHDSVVYQIYPRSFNDSNGDGIGDLVGIIEKLDYLKELGIDVIWLSPVYDSPNDDNGYDIRDYEAIMSEFGTMADFDRLLDQAHERGIKIVMDLVINHSSDEHAWFAESRKSKDNPYRDYYIWRSANEDGTLPNNWGSIFSGPAWELDEATNEYYLHLFSKKQPDLNWENPKLRQEVYQMITRWLDRGIDGFRMDVINLISKTPGLPDATVPPGALYGDGGQHYINGPRIHEFLKEMNDASFGNYDVLTVGEMPGATTDDAILYTDPERKEVNMVFTFEHMDLDSGPGGKWDVKPFDLQKLKENFTKWQVALHEKGWNSLYWNNHDQPRVVSRFGNDTTYRVESAKMLATLLHLLKGTPYIYQGEEIGMTNVAFESIEDYEDIEIRNMWKERTEQGASPAELLRAVHVKGRDNARTPIQWDATEHAGFTTGTPWLKVNPNYPTINVEQALEDPDSIFYYYKQLIALRHQHDVIVYGEYALILEEETDIYAYTRTYENETWYIYCSFSQEEVTVPLSHDTSDPVIGNYSESPAGSKEELVLRPYEAIVYRTTR
B8: EsOgl (Exiguobacterium artemiae 255-15; K441P) (protein)
chain: MERKWWHDSVVYQIYPRSFNDSNGDGIGDLVGIIEKLDYLKELGIDVIWLSPVYDSPNDDNGYDIRDYEAIMSEFGTMADFDRLLDQAHERGIKIVMDLVINHSSDEHAWFAESRKSKDNPYRDYYIWRSANEDGTLPNNWGSIFSGPAWELDEATNEYYLHLFSKKQPDLNWENEKLRQEVYQMITRWLDRGIDGFRMDVINLISKTPGLPDATVPPGALYGDGGQHYINGPRIHEFLKEMNDASFGNYDVLTVGEMPGATTDDAILYTDPERKEVNMVFTFEHMDLDSGPGGKWDVKPFDLQKLKENFTKWQVALHEKGWNSLYWNNHDQPRVVSRFGNDTTYRVESAKMLATLLHLLKGTPYIYQGEEIGMTNVAFESIEDYEDIEIRNMWKERTEQGASPAELLRAVHVKGRDNARTPIQWDATEHAGFTTGTPWLPVNPNYPTINVEQALEDPDSIFYYYKQLIALRHQHDVIVYGEYALILEEETDIYAYTRTYENETWYIYCSFSQEEVTVPLSHDTSDPVIGNYSESPAGSKEELVLRPYEAIVYRTTR

Substrate: O=[N+]([O-])c1ccc(O[C@H]2O[C@H](CO)[C@@H](O)[C@H](O)[C@H]2O)cc1
Test: purified protein
Conditions: 33 mM potassium phosphate pH 7.0, 25 °C

Protein | Km | kcat/Km
B1 | 850 ± 20 µM | 167000 M⁻¹ s⁻¹
B2 | 920 ± 70 µM | 217000 M⁻¹ s⁻¹
B3 | 1660 ± 60 µM | 250000 M⁻¹ s⁻¹
B4 | 1370 ± 40 µM | 167000 M⁻¹ s⁻¹
B5 | 1430 ± 90 µM | 167000 M⁻¹ s⁻¹
B6 | 1060 ± 20 µM | 233000 M⁻¹ s⁻¹
B7 | 1970 ± 80 µM | 167000 M⁻¹ s⁻¹
B8 | 930 ± 80 µM | 183000 M⁻¹ s⁻¹
